# Measured values from paper PMC7614720.
# Tested on: C[C@@H](O)[C@H]1C(=O)N2C(C(=O)O)=C([C@H]3CCCO3)S[C@H]12
# Test: purified protein
# Conditions: two Zn2+ ions active site
substance,measurement,value
VIM-2 (Pseudomonas aeruginosa),Km,5.11 µM
same,kcat,36.7 s⁻¹
same,kcat/Km,7.17e+06 M⁻¹ s⁻¹
